Source: patent US20230287120A1 (ALLOGENE THERAPEUTICS, published 2023)

T1: human DLL3 on cells (endogenous on SHP-77, DMS 273, DMS 454; full length human DLL3 by lentivirus on HEK-293T) (human, UniProt Q9NYJ7 27-618)
T1 construct: whole, on cells
T1 sequence (looked up): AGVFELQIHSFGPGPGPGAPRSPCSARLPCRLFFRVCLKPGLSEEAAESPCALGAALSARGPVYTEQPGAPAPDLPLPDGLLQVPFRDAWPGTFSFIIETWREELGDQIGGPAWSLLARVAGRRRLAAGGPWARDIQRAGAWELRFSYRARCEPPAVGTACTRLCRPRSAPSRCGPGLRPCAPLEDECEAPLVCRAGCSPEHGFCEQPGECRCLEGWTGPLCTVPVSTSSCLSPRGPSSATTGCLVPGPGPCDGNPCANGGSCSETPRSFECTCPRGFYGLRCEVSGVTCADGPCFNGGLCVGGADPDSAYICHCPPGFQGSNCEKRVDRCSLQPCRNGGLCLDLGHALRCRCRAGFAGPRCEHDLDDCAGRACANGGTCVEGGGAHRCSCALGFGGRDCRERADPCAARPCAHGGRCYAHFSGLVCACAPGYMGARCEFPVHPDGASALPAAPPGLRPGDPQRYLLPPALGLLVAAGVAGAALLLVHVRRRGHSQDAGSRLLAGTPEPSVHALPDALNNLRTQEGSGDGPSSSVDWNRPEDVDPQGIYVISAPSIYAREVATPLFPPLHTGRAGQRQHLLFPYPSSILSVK

T2: Flag tagged recombinant DLL3 (Adipogen) (Homo sapiens (Human), UniProt Q9NYJ7 27-492)
T2 construct: Bought reagent; also called Flag-DLL3
T2 sequence: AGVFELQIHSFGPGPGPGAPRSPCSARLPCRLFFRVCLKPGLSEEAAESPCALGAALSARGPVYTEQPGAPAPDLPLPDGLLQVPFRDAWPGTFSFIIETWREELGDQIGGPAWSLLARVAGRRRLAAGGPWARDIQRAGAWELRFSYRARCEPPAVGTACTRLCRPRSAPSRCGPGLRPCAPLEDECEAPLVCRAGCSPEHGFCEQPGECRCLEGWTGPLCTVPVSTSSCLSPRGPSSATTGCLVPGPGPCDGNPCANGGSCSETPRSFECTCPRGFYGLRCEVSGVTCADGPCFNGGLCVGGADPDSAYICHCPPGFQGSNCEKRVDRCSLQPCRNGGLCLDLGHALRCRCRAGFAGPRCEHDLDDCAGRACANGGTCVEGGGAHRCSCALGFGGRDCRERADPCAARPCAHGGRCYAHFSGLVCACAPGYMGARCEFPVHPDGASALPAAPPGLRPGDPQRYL

T3: full length human DLL3 with N-terminal HA tag, expressed on CHO cells (human, UniProt Q9NYJ7 27-618)
T3 construct: also called Human DLL3 complete ECD
T3 sequence: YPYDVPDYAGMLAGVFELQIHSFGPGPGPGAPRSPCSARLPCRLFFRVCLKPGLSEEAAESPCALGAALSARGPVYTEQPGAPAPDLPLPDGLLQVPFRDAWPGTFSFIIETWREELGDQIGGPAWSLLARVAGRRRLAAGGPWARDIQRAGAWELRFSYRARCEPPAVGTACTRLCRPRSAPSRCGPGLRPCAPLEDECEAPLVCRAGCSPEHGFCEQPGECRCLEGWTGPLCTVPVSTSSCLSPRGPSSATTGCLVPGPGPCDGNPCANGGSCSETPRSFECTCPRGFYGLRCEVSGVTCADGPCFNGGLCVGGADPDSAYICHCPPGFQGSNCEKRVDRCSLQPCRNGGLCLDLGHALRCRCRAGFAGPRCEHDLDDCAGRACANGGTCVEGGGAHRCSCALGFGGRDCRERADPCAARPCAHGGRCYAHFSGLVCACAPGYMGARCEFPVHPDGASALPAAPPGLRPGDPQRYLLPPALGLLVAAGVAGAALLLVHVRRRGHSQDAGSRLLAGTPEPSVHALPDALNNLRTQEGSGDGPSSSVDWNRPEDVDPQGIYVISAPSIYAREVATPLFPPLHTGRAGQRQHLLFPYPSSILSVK


Tests used:
[1] = biological target: T1, human DLL3 on cells (endogenous on …); assay: flow cytometry on DMS 273, DMS 454 and SHP-77 cells, 2 ug/ml antibody, PE anti-mouse IgG
[2] = biological target: T2, Flag tagged recombinant DLL3 (Adipogen); assay: flow cytometry, primary T cells with the CAR, Flag tagged recombinant DLL3, PE anti-Flag
[3] = biological target: T3, full length human DLL3 with N-terminal …; assay: flow cytometry on CHO cells with full length and truncated human DLL3; column Binds to DLL3 Domain
Description: The samples were analyzed by flow cytometry. […] Signals from the PE channel are shown on the x-axis and counts are shown on the y-axis.

binding result [1] | Rec-DLL3+ gate, percent of live CD3+ cells [2] [%] | binding result [3] | Binder
binds | – | – | 3E4 (antibody, V domains shown, also called anti-DLL3 antibody 3E4 (purified, mouse IgG2A backbone)) VH: QVQLQQWGAGLLKPSETLSLTCAVYGGSFSGYYWSWIRQPPGKGLEWIGEIIHSGSSNYNPSLKSRVSISVDTSKNQFSLKLSSVTAADTAVYYCSRGEYGSGSRFDYWGQGTLVTVSS VL: AIQMTQSPSSLSASVGDRVAITCRASQGIRDDLGWYQQKPGKAPKLLIYAASSLQSGVPSRFSGSRSDTDFTLTISSLQPEDFATYYCLQDYDYPLTFGGGTKVEIK
binds | – | binds | anti-DLL3 antibody 4E6 (antibody, V domains shown) VH: QVQLQESGPGLVKPSETLSLTCTVSSDSISSYYWSWIRQPPGKGLEWISYIYYSGISNYNPSLKSRVSISVDTSKNQFSLRLSSVTAADTAVYYCARISVAGFFFDNWGQGTLVTVSS VL: EIMLTQSPDTLSLSPGERATLSCRASQSVSSSYLAWYQQKPGQAPRLLIYGASSRAAGVPDRFSGSGSGTDFTLTISRLAPEDFVVYYCQQYGISPLTFGGGTKVEIK
binds | – | binds | anti-DLL3 antibody 10G1-K (antibody, V domains shown) VH: EVQLLESGGGLVQPGGSLRLSCAASGFTFSSYAMNWVRQAPGKGLEWVSTISGSGGSTYYADSVKGRFTISRDNSKNTLYLQMNSLRAEDTAVFYCAIDPEYYDILTGGDYWGQGTLVTVSS VL: DIQMTQSPSAMSASVGDRVTITCRASQGISNYLAWFQQKPGKVPKRLIYAASSLQSGVPSRFSGSGSGTEFTLTISSLQPEDFATYFCLQHDSFPLTFGGGTKVEIK

The remaining lines, values behind:

Binder | binding result [1] | Rec-DLL3+ gate, percent of live CD3+ cells [2] [%] | binding result [3]
10G1-K R2S (other, member of group m46; also called 10G1-K-R2S anti-DLL3 CAR with safety switch, on primary T cells) CAR: GGGGSCPYSNPSLCGGGGSCPYSNPSLCGGGGSEVQLLESGGGLVQPGGSLRLSCAASGFTFSSYAMNWVRQAPGKGLEWVSTISGSGGSTYYADSVKGRFTISRDNSKNTLYLQMNSLRAEDTAVFYCAIDPEYYDILTGGDYWGQGTLVTVSSGGGGSGGGGSGGGGGSGGGGSDIQMTQSPSAMSASVGDRVTITCRASQGISNYLAWFQQKPGKVPKRLIYAASSLQSGVPSRFSGSGSGTEFTLTISSLQPEDFATYFCLQHDSFPLTFGGGTKVEIKTTTPAPRPPTPAPTIASQPLSLRPEACRPAAGGAVHTRGLDFACDIYIWAPLAGTCGVLLLSLVITKRGRKKLLYIFKQPFMRPVQTTQEEDGCSCRFPEEEEGGCELRVKFSRSADAPAYQQGQNQLYNELNLGRREEYDVLDKRRGRDPEMGGKPRRKNPQEGLYNELQKDKMAEAYSEIGMKGERRRGKGHDGLYQGLSTATKDTYDALHMQALPPR | – | 39.3 | –
10G1-K RSR (other, member of group m46; also called 10G1-K RSR anti-DLL3 CAR with safety switch, on primary T cells) CAR: GGGGSCPYSNPSLCGGGGSEVQLLESGGGLVQPGGSLRLSCAASGFTFSSYAMNWVRQAPGKGLEWVSTISGSGGSTYYADSVKGRFTISRDNSKNTLYLQMNSLRAEDTAVFYCAIDPEYYDILTGGDYWGQGTLVTVSSGGGGSGGGGSGGGGGSGGGGSDIQMTQSPSAMSASVGDRVTITCRASQGISNYLAWFQQKPGKVPKRLIYAASSLQSGVPSRFSGSGSGTEFTLTISSLQPEDFATYFCLQHDSFPLTFGGGTKVEIKGGGGSCPYSNPSLCGGGGSTTTPAPRPPTPAPTIASQPLSLRPEACRPAAGGAVHTRGLDFACDIYIWAPLAGTCGVLLLSLVITKRGRKKLLYIFKQPFMRPVQTTQEEDGCSCRFPEEEEGGCELRVKFSRSADAPAYQQGQNQLYNELNLGRREEYDVLDKRRGRDPEMGGKPRRKNPQEGLYNELQKDKMAEAYSEIGMKGERRRGKGHDGLYQGLSTATKDTYDALHMQALPPR | – | 42.7 | –
4H8 RSR (other, member of group m45; also called 4H8-RSR anti-DLL3 CAR with safety switch, on primary T cells) CAR: GGGGSCPYSNPSLCGGGGSQVQLQQSGPGLVKPSQTLSLTCAISGDSVSSNSATWNWIRQSPSRGLEWLGRTYYRSKWYDDYAVSVKSRITINPDTSKNHLSLHLNSVTPEDTAVYYCAGGGLVGAPDGFDVWGQGTMVTVSSGGGGSGGGGSGGGGSGGGGSQSVLTQPPSASGTPGQRVTISCSGSSSNIGSDPVNWYQQLPGTAPKLLIYSNNQRPSGVPDRFSGSKSGTSASLAISGLQSEDEADYYCSAWDDSLNGYVFGTGTKVTVLGGGGSCPYSNPSLCGGGGSTTTPAPRPPTPAPTIASQPLSLRPEACRPAAGGAVHTRGLDFACDIYIWAPLAGTCGVLLLSLVITKRGRKKLLYIFKQPFMRPVQTTQEEDGCSCRFPEEEEGGCELRVKFSRSADAPAYQQGQNQLYNELNLGRREEYDVLDKRRGRDPEMGGKPRRKNPQEGLYNELQKDKMAEAYSEIGMKGERRRGKGHDGLYQGLSTATKDTYDALHMQALPPR | – | 51.9 | –
4H8 R2S (other, member of group m45; also called 4H8-R2S anti-DLL3 CAR with safety switch, on primary T cells) CAR: GGGGSCPYSNPSLCGGGGSCPYSNPSLCGGGGSQVQLQQSGPGLVKPSQTLSLTCAISGDSVSSNSATWNWIRQSPSRGLEWLGRTYYRSKWYDDYAVSVKSRITINPDTSKNHLSLHLNSVTPEDTAVYYCAGGGLVGAPDGFDVWGQGTMVTVSSGGGGSGGGGSGGGGSGGGGSQSVLTQPPSASGTPGQRVTISCSGSSSNIGSDPVNWYQQLPGTAPKLLIYSNNQRPSGVPDRFSGSKSGTSASLAISGLQSEDEADYYCSAWDDSLNGYVFGTGTKVTVLTTTPAPRPPTPAPTIASQPLSLRPEACRPAAGGAVHTRGLDFACDIYIWAPLAGTCGVLLLSLVITKRGRKKLLYIFKQPFMRPVQTTQEEDGCSCRFPEEEEGGCELRVKFSRSADAPAYQQGQNQLYNELNLGRREEYDVLDKRRGRDPEMGGKPRRKNPQEGLYNELQKDKMAEAYSEIGMKGERRRGKGHDGLYQGLSTATKDTYDALHMQALPPR | – | 58.6 | –
